From patent US11939377B2, “Affinity matured CD22-specific monoclonal antibody and uses thereof” (The U.S.A., as represented by the Secretary, Department of …, priority 2018, dated 2024)

B1: m971-L7: affinity matured human monoclonal antibody specific for CD22; VH SEQ ID NO: 4, VL SEQ ID NO: 5, scFv SEQ ID NO: 6 (antibody, V domains shown)
VH: QVQLQQSGPGMVKPSQTLSLTCAISGDSVSSNSVAWNWIRQSPSRGLEWLGRTYYRSTWYNDYAVSMKSRITINPDTNKNQFSLQLNSVTPEDTAVYYCAREVTGDLEDAFDIWGQGTMVTVSS
VL: DIQMIQSPSSLSASVGDRVTITCRASQTIWSYLNWYRQRPGEAPNLLIYAASSLQSGVPSRFSGRGSGTDFTLTISSLQAEDFATYYCQQSYSIPQTFGQGTKLEIK

Key:
[1] = test system: CD22 expression on ALL and DLBCL cell lines (Nalm6, Kopn8, SEM, Pfeiffer, Toledo, PDX); assay: CD22 expression on leukemia/lymphoma cells by flow cytometry after drug exposure in vitro; assay type: cell-based, human; details: Enzastaurin 10 μM, Staurosporine 100 μM, 24 hours
Procedure: FIGS. 3A-3D: (FIG. 3A) Four cell lines (Nalm6, Kopn8, Pfieffer and Toldeo) were co-incubated with 1 ng/ml Bryostatin 1 for 24 hours and analyzed using flow cytometry one day after Bryostatin 1 exposure. Site density was analyzed using standardized Quantibrite-PE beads. (FIG. 3B) Cell lines were co-incubated with 1 ng/ml Bryostatin 1 for 24 hours, washed, and analyzed using flow cytometry at 1 and 7 days after Bryostatin 1 exposure. Fold change was calculated based on site density: (Cell line Bryostatin 1—Cell line DMSO)/Cell line DMSO. (FIG. 3C) NSG mice were injected with 1×10^6 GPF-positive Nalm6 leukemia cells on Day 0. Bryostatin 1 was administered at 0.8 μg/kg on Day 3. Mice were sacrificed 7 and 12 days after Bryostatin 1 injection and CD22 was evaluated by flow cytometry. (FIG. 3D) CD22-low relapse PDX cell line was cultured in vitro with 1 nmol/L Bryostatin 1 for 24 hours and measured for CD22 expression using CD22 antibody.
FIGS. 10A-10E: (FIG. 10A) Three cell lines (Toldeo, Kopn8 and Nalm6) were co-incubated with Bryostatin 1 at varying concentrations for 24 hours. At 24 hours, cells were collected for protein kinase C (PKC)-βII isoform analysis by western blot. (FIG. 10B) KOPN8 or SEM cell lines were exposed to Bryostatin 1 for 16, 24, 48 or 72 hours. RNA was extracted from cells and analyzed using RNAseq. (FIG. 10C) Immunofluorescent staining of CD22 was conducted through permeabilization followed by staining of CD22. (FIG. 10D) Four cell lines were co-incubated with various combinations of Enzastaurin (10 μM), Staurosporine (100 μM), or Bryostatin 1 (1 nM) for 24 hours. CD22 expression was assessed using flow cytometry. MFI fold change=CD22 MFI^Bryostatin1/CD22 MFI^DMSO. (FIG. 10E) Cell lines were co-incubated with 1 nM Bryostatin 1 for 24 hours and measured for CD22 expression using CD22-PE antibody. MFI fold change=CD22 MFI^Bryostatin 1/CD22 MFI^DMSO.
FIG. 11: CD22^lo or parental Nalm6 cell lines were exposed to 1 ng/ml Bryostatin 1 for 24 hours. CD22 expression was assessed using flow cytometry.
For all in vitro experiments and tumor/CAR pretreatment prior to intravenous injection, Bryostatin 1 was administered to cells at a concentration of 1 ng/mL. Dimethyl sulfoxide (DMSO) vehicle control was administered to control-treated cells at an equal volume. Prior to co-culture or intravenous injection, Bryostatin 1- and DMSO-treated cells were washed 3x in sterile PBS. For all in vivo experiments, Bryostatin 1 was diluted in PBS and administered via intraperitoneal injection at a dose of 40 μg/kg (1 μg/25 g mouse). For control-treated groups, an equal volume of DMSO was diluted in PBS and administered in the same manner
FACS analysis of cell surface CAR and protein expression was performed using an LSR II Fortessa flow cytometer (BD Biosciences). CD22-CAR was detected by incubation with 22-Fc (R&D Systems), followed by incubation with human IgG-specific PE-F(ab)2 (Thermo Fisher Scientific). The following human monoclonal antibodies were used for detection of cell surface proteins: CD22-APC, CD22-PE, CD19-Pacific Blue, CD45-PerCP/Cy5.5, CD3-APC/Cy7, PD1-PE/Cy7, LAG3-APC, TIM3-Pacific Blue, CD8-APC, CD8-PE/Cy7, CD45RA-APC, CD45RO-PE/Cy7, CCR7-Pacific Blue, CD4-Pacific Blue, CD69-APC (all from BioLegend). CD22 site density was determined using QuantiBrite-PE beads (BD Biosciences) using methods previously described (Jasper et al., Cytometry B Clin Cytom 80(2):83-90, 2011). Dead cells were identified using eFluor 506 fixable viability dye (Thermo Fisher Scientific). GFP-expressing leukemia cells were identified through the FITC channel.

[2] = biological target: CD22 extracellular domain (ECD) (Homo sapiens, UniProt P20273); assay: BIAcore surface plasmon resonance of scFv binding to immobilized CD22 ECD-Fc
Procedure: FIGS. 13A-13F: (FIG. 13A) BIAcore analysis was used to evaluate association and dissociation curves of various scFvs. […] (FIG. 13B) CD22^V1 or CD22 CART were co-cultured with CD22^neg or CD22^lo leukemia and evaluated at 24 hours for PD1 expression through flow cytometry on a Fortessa flow machine. (FIGS. 13C-13F) Mice were injected with CD22^lo or Nalm6 leukemia on Day 0. […] Bone marrow cells were stained for flow cytometry and analyzed on Fortessa flow machine. Statistics were calculated using unpaired t-test (** p<0.0021).
Purified CD22 ECD-Fc fusion protein was diluted in 10 mM acetic acid buffer, pH 5.0, immobilized on a CMS biosensor chip for 1400 RU using an amine coupling kit. The running buffer was HBS-EP (10 mM HEPES, pH 7.4, 150 mM NaCl, 3 mM EDTA, 0.05% surfactant P20). The scFvs diluted in running buffer were allowed to flow through the cells at concentrations 0.32, 1.6, 8, 40 and 200 nM. After a 10-minute of dissociation, the chip was regenerated with 10 mM acetic acid, pH 4.0, 0.5 M NaCl. The data were fitted with 1:1 binding model and the dissociation rate constant was estimated with the BIAevaluation software.

Molecule | upregulation of CD22 [1] | affinity relative to original scFv m971 ([2]; as measured by BIAcore) | Kd ([2]; scFv, bound from instrument limit kd) [nM] | Kd ([2]; scFv, bound from instrument limit kd 1.0×10^−5 / 5.6×10^5) [nM] | calculated dissociation rate constant kd ([2]; scFv, lower than the kd measurable by BIAcore X-100 (1.0×10^−5 l/s)) [L/s]
Cn1cc(C2=C(c3cn(C4CCN(Cc5ccccn5)CC4)c4ccccc34)C(=O)NC2=O)c2ccccc21 [Enzastaurin] | neither the PKCβII inhibitor, Enzastaurin, nor a broad PKC inhibitor, Staurosporine, was able to upregulate CD22 | – | – | – | –
CN[C@@H]1C[C@H]2O[C@@](C)([C@@H]1OC)n1c3ccccc3c3c4c(c5c6ccccc6n2c5c31)C(=O)NC4 [Staurosporine] | neither the PKCβII inhibitor, Enzastaurin, nor a broad PKC inhibitor, Staurosporine, was able to upregulate CD22 | – | – | – | –
B1 | – | more than 1000 fold | < 0.018 | < 0.018 | 1.1e-06
